According to patent US20260234242A1 (HAINAN SIMCERE ZAIMING PHARMACEUTICAL, published 2026):
Where a chain is given by its changes, count along the chain named. Values belong to the binder of their own block, whether it stands above or below them.

Tests used:
[1] = molecular target: T1, human CDH6 on tumor cells (OVCAR3 cells, PA-1 cells) (human, UniProt P55285 54-790); test: FACS, OVCAR3 cells
T1 sequence: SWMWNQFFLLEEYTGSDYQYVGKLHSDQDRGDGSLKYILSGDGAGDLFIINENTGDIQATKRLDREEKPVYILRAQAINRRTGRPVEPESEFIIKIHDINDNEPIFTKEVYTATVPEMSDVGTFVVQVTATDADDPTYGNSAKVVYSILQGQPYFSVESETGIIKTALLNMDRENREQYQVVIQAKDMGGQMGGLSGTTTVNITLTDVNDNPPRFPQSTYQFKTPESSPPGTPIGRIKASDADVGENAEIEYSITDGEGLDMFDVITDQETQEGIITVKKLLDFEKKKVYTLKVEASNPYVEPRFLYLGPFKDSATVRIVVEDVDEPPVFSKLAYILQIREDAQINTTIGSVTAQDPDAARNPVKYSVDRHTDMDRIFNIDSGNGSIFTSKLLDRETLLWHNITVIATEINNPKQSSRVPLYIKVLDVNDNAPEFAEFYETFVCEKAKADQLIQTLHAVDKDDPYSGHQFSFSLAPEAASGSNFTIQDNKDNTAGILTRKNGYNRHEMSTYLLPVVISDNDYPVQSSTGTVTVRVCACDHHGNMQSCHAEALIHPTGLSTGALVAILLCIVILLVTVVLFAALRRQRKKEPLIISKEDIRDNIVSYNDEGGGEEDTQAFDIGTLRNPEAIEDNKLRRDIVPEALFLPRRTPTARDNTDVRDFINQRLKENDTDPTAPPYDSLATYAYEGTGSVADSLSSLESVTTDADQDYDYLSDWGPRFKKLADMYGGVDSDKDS
Experimental: (§1) OVCAR3 cells with high expression of CDH6 and PA-1 cells with moderate expression of CDH6 were used to detect the binding activity of the antibodies to the cells. […] The cells were washed once with PBS, counted, resuspended to 2×10⁶ cells/mL in an FACS buffer (PBS+2% FBS), and then added to a 96-well plate at 50 μL/well. The chimeric antibodies were diluted with FACS buffer (PBS+2% FBS) and added to the 96-well plate at 50 μL/well, and the plate was incubated at 4° C. for 1 h. […] The dilution was added to the 96-well plate at 50 μL/well, and the plate was incubated at 4° C. for 1 h. After the plates were centrifuged and washed 2 times with PBS, the cells were resuspended in an FACS buffer. The mean fluorescence intensity (MFI) was measured using FACS Canton II (BD). Analysis was performed by the GraphPad Prism software, data were fitted, and EC50 values were calculated. The chimeric antibodies tested had strong binding to both OVCAR3 cells and PA-1 cells.

[2] = molecular target: T2, monkey CDH6 protein (cynoCDH6 ECD-his) (monkey (cyno), UniProt A0A2K5TW62 19-615); test: ELISA, coated antigen
T2 construct: range 19-615; also called Cyno CDH6-his; not shown: his tag
T2 sequence: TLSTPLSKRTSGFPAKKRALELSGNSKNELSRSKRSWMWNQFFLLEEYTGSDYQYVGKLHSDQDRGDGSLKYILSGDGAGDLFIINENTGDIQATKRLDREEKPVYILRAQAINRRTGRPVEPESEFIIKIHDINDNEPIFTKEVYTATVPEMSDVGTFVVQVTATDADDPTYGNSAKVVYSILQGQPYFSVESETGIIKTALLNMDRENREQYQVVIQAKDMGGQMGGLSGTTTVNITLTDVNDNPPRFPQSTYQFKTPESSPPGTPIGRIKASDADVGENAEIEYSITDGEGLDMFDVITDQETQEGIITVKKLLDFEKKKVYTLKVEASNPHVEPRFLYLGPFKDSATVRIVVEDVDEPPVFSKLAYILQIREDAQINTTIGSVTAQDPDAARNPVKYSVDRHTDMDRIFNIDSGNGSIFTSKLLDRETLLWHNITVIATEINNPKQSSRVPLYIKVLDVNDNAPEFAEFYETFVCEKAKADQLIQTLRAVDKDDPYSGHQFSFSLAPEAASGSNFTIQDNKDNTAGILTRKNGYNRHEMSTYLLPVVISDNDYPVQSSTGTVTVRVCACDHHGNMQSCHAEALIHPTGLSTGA
Experimental: Human CDH6 protein (hCDH6 ECD-his, conventionally synthesized), monkey CDH6 protein (cynoCDH6 ECD-his, conventionally synthesized; the cynoCDH6 ECD sequence was derived from Uniprot #A0A2K5TW62 (19-615)), and murine CDH6 protein (mCDH6 ECD-his, conventionally synthesized; the mCDH6 ECD sequence was derived from Uniprot #P97326 (19-615)) were diluted with PBS to a final concentration of 1 μg/mL, and added to a 96-well ELISA plate at 100 μL/well. The plate was incubated at 4° C. overnight. The next day, the plate was washed 3 times with a plate washing solution (PBS+0.01% (v/v) Tween 20), and a blocking buffer (PBS+0.01% (v/v) Tween 20+2% (w/w) BSA) was added for blocking at room temperature for 2 h. The blocking buffer was discarded, and the plate was washed 3 times. The chimeric antibodies were diluted with 1% BSA+PBS (purchased from Cytiva, Cat. No. SH30264.01) and added to the 96-well plate at 50 μL/well. After incubation at 37° C. for 2 h, the plate was washed 3 times with a plate washing solution. […] The plate was incubated at 37° C. for 1 h and then washed 5 times with a plate washing solution. A TMB substrate (purchased from Seracare, Cat. No. 5120-0077) was added at 50 μL/well and incubated at room temperature for 10 min, then a stop solution (1.0 N HCl) was added at 50 μL/well. OD450 nm values were read using a microplate reader (Biotek). Analysis was performed by the GraphPad Prism software, data were fitted, and EC50 values were calculated. The chimeric antibodies tested all had strong binding to the human CDH6 protein, the monkey CDH6 protein, and the murine CDH6 protein.

[3] = molecular target: T1, human CDH6 on tumor cells (OVCAR3 …); test: FACS, PA-1 cells
Experimental: as §1

B1: CHI-CDH6-3 (antibody, human IgG1, kappa, V domains shown)
VH: QVQLQQPGAELVKPGASVKLSCKASGYTFTSYWIHWVKQRPGQGLEWIGEINPSNGVTNCNENFKSKATLTVDKSSSTAYMQLSSLTSEDSAVYYCTIPNLLWWYFDVWGAGTTVTVSS
VL: DIQMTQSPASLSVSVGETVTITCRASENIYSNLAWYQQKQGKSPQLLVYEATNLADGVPSRFSGSGSGTQYSLKINSLQSEDFGSYYCQHFWGTLWTFGGGTKLEIKR
notes: also called CH1-CDH6-3; chimeric antibody of murine CDH6-3
EC50 [1]: 1.16 nM
Max MFI [1]: 15500 MFI
EC50 [2]: 0.041 nM
Max OD450 [2]: 2.64 OD450
EC50 [3]: 0.13 nM
Max MFI [3]: 3870 MFI

B5: CHI-CDH6-1 (antibody, human IgG1, kappa, V domains shown)
VH: QVQLQQPGAELVRPGSSVKLSCKASGYTFTNYWMHWVKQRPIEGLEWIGDIDPSHSETHYTQKFKDKATLTVDKSSSTAYMQLSSLTSEDSAVYYCARGDLGRFDYWGQGTTLTVSS
VL: DIVLTQSPASLAVSLGQRATISCRASESVSIHGTHLMHWYQQKSGQPPKLLIYAASNLESGVPARFSGSGSETDFTFNIHPVEEEDAATYFCQQSFEDPWTFGGGTKLEIKR
notes: also called CHI-hCDH6-1; CH1-CDH6-1
EC50 [1]: 0.13 nM
Max MFI [1]: 14700 MFI
EC50 [2]: 0.023 nM
Max OD450 [2]: 2.54 OD450
EC50 [3]: 0.1 nM
Max MFI [3]: 4390 MFI

B7: CHI-CDH6-4 (antibody, human IgG1, kappa, V domains shown)
VH: QVQLQQSGPELVKPGASVKISCKASGYAFSNFWMNWVKQRPGKGLEWIGWIYPGDGDTNYNGKFKDKATLTADKSSSTAYIQLSSLTSEDSAVYFCARLYDAWGFFDYWGQGTTLTVSS
VL: QIVLTQSPAIMSASPGQKVTITCSASSSVNYMHWYQQKLGSSPKLWIYDKSKLAPGVPARFSGSGSGTSYSLTISSMEAEDAASYFCHQWSSYPPMTFGGGTKLEIKR
notes: also called CH1-CDH6-4; chimeric antibody of murine CDH6-4
EC50 [1]: 3.17 nM
Max MFI [1]: 14000 MFI
EC50 [2]: 0.034 nM
Max OD450 [2]: 2.23 OD450
EC50 [3]: 2.48 nM
Max MFI [3]: 3990 MFI

B9: CHI-CDH6-2 (antibody, human IgG1, kappa, V domains shown)
VH: EVQLQQSGPELVKPGASVRISCKASGYTFTDYYMNWVKQSHGKSLEWIGDIDPNNANTTYNQKFKGKATLTVDKSSSTAYMELRSLTSEDSAVYSCASFGYDVEWFGYWGQGTLVTVSA
VL: QIVLTQSPALMSASPGEKVTMTCSASSSVSYMYWYQQKPRSSPKPWIYLTSNLASGVPARFSGSGSGTSYSLTISSMEAEDAATYYCQQWSSNPFTFGSGTKLEIKR
notes: also called chimeric antibody of murine CDH6-2
EC50 [1]: 0.36 nM
Max MFI [1]: 15600 MFI
EC50 [2]: 0.022 nM
Max OD450 [2]: 2.12 OD450
EC50 [3]: 0.2 nM
Max MFI [3]: 4760 MFI

Now from value to binder:

EC50 [1]: 0.67 nM
Max MFI [1]: 14800 MFI
EC50 [2]: 0.03 nM
Max OD450 [2]: 2.24 OD450
EC50 [3]: 0.43 nM
Max MFI [3]: 4630 MFI
B2: CHI-CDH6-6 (antibody, human IgG1, kappa, V domains shown)
VH: EVQLQQSGPELVKPGDSVKMSCKASGYTFTDYYMAWVRQSHRKSLEWIGYIFPNSGGTDYSQKFKGKATLTVDKSSSTVYMELHSLTSEDSAVYYCARELGADYGDYYAMDHWGQGTSVSVSS
VL: DIQMTQSPASLSASVGETVTITCRASENIDSYLAWYQQKQGKSPQLLVYSATLLADGVPSRFSGSGSGTQYSLKINSLKSEDVARYYCQHYYRTPPTFGSGTKLEIKR
notes: also called CHI-hCDH6-6; chimeric antibody of murine CDH6-6

EC50 [1]: 0.46 nM
Max MFI [1]: 16100 MFI
EC50 [2]: 0.026 nM
Max OD450 [2]: 2.12 OD450
EC50 [3]: 0.23 nM
Max MFI [3]: 4710 MFI
B3: CHI-CDH6-8 (antibody, human IgG1, kappa, V domains shown)
VH: EVQLQQSGPELVKPGDSVKMSCKASGYTFTDYYMAWIKQNHGKSLEWIGYIYPNNGGTDYNQKFRGKATLTVDKSSSAAYMELHSLTSEDSAVYYCAREIGTLYGDYYAMDYWGQGTSVTVSS
VL: B2 VL with S50T, K79Q, R93S
notes: also called chimeric antibody of murine CDH6-8

EC50 [1]: 5.57 nM
Max MFI [1]: 12000 MFI
EC50 [2]: 0.178 nM
Max OD450 [2]: 2.05 OD450
EC50 [3]: 7.57 nM
Max MFI [3]: 2470 MFI
B4: CHI-CDH6-7 (antibody, human IgG1, kappa, V domains shown)
VH: EVKLVESGGGLVKPGGSLKVSCAASGFTFSDHGMAWVRQAPGKGPEWVAFISNLAYSIYYADTVTGRFTISRENAKNTLYLEMSSLRSEDTAMYYCARVYVKWYFDVWGAGTTVTVSS
VL: B2 VL with Y49F, S50A, K79Q, R93S, P96L, S100A, I106L
notes: also called CH1-CDH6-7; chimeric antibody of murine CDH6-7

EC50 [1]: 0.2 nM
Max MFI [1]: 13900 MFI
EC50 [2]: 0.026 nM
Max OD450 [2]: 2.26 OD450
EC50 [3]: 0.08 nM
Max MFI [3]: 4070 MFI
B6: CHI-CDH6-10 (antibody, human IgG1, kappa, V domains shown)
VH: QVQLQQPGAELVKPGTSVKMSCKASGYTFTSDWIAWVKQRPGQGLEWIGDIYPGSGRTHNNEKFNFKATLTVDTSSNTAYMQLSSLTSEDSAVYFCARPMLGRFDYWGQGTTLTVSS
VL: B5 VL with S44P, F77L, W100F, G104S
notes: also called chimeric antibody of murine CDH6-10

EC50 [1]: 0.51 nM
Max MFI [1]: 18200 MFI
EC50 [2]: 0.026 nM
Max OD450 [2]: 2.78 OD450
EC50 [3]: 0.16 nM
Max MFI [3]: 4400 MFI
B8: CHI-CDH6-9 (antibody, human IgG1, kappa, V domains shown)
VH: QVQLQQPGAELVKPGASVKLSCKASGYTFTGYWMHWVRQRPGQGLEWIGEINPNNGGTNCNEQFKNKATLTVDKSSSTAYMQLSSLTSEDSAVFYCTISFGNYLFFDVWGAGTTVTVSS
VL: DIQMTQSPASLAASVGETITITCQASENIYFSLAWYQQKQGKSPQLLIYNANTLEDGVPSRFVGSGSGTQYSMKINSIQPEDTATYFCDQTYDFPWTFGGGTKLEIKR
notes: also called chimeric antibody of murine CDH6-9

EC50 [1]: 0.57 nM
Max MFI [1]: 12700 MFI
EC50 [2]: 0.046 nM
Max OD450 [2]: 1.96 OD450
EC50 [3]: 0.49 nM
Max MFI [3]: 4560 MFI
B10: CHI-CDH6-5 (antibody, human IgG1, kappa, V domains shown)
VH: QVQLQQSGAELVRPGTSVKMSCKAAEYTFTNYWIGWVKQRPGHGLEWIGDLYPGGDHANYNEKFEGKATLTADTSSSTAYMQLSSLTSEDSAIYYCARGMLTTGFDSWGQGTTLTVSS
VL: DIVMSQSPSSLAVSAGEKVTMSCKSSQSLFNSRTRKNYLAWYQQKPGQSPKLLIYWASTRESGVPDRFTGSGSGTDFTLTISSVQAEDLAVYYCKQSYYLRTFGGGTKLEIKR
notes: also called CH1-CDH6-5; chimeric antibody of murine CDH6-5
